Measurements as given in the supplement of paper PMC10567573.

B1: CDC14A (parent)
chain: LWVQGDIFRSKLKNRPSSEGSINK

Variants of: B1
Assay: protein stability index of a GFP-peptide fusion (GPS, HEK-293T) (PSI 1-6); higher = more stable
Details: c terminus: a fixed tail appended
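Also: lentivirally expressed fusions sorted by FACS into six bins by GFP to DsRed ratio, PSI derived from sequencing read proportions per bin multiplied by bin number.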

Variant | protein stability index
LWVQGDIFRSPLKNRPSSEGSINK | 3.22
LWVQGDIFRSDLKNRPSSEGSINK | 2.38
LWVQGFIFRSKLKNRPSSEGSINK | 1.58
LWVQGHIFRSKLKNRPSSEGSINK | 2.24
LWVQGIIFRSKLKNRPSSEGSINK | 2.69
LWVQGSIFRSKLKNRPSSEGSINK | 2.28
LWVQGKIFRSKLKNRPSSEGSINK | 1.74
LWVQGYIFRSKLKNRPSSEGSINK | 2.45
LWVQGRIFRSKLKNRPSSEGSINK | 1.9
LWVQGNIFRSKLKNRPSSEGSINK | 2.83
LWVQGMIFRSKLKNRPSSEGSINK | 2.61
LWVQGCIFRSKLKNRPSSEGSINK | 1.8
LWVQGPIFRSKLKNRPSSEGSINK | 2.34
LWVQGEIFRSKLKNRPSSEGSINK | 2.63
LWVQGQIFRSKLKNRPSSEGSINK | 1.99
LWVQGGIFRSKLKNRPSSEGSINK | 2.64
LWVQGWIFRSKLKNRPSSEGSINK | 1.37
LWVQGAIFRSKLKNRPSSEGSINK | 2.27
LWVQGTIFRSKLKNRPSSEGSINK | 1.84
LWVQGVIFRSKLKNRPSSEGSINK | 1.43
LWVQGLIFRSKLKNRPSSEGSINK | 1.71
LWVSGDIFRSKLKNRPSSEGSINK | 3.29
LWVWGDIFRSKLKNRPSSEGSINK | 1.82
LWVFGDIFRSKLKNRPSSEGSINK | 1.73

Variant | protein stability index
LWVCGDIFRSKLKNRPSSEGSINK | 2.46
LWVPGDIFRSKLKNRPSSEGSINK | 2.74
LWVEGDIFRSKLKNRPSSEGSINK | 2.19
LWVVGDIFRSKLKNRPSSEGSINK | 1.81
LWVTGDIFRSKLKNRPSSEGSINK | 2.41
LWVKGDIFRSKLKNRPSSEGSINK | 2.19
LWVYGDIFRSKLKNRPSSEGSINK | 1.95
LWVAGDIFRSKLKNRPSSEGSINK | 1.9
LWVHGDIFRSKLKNRPSSEGSINK | 2.67
LWVIGDIFRSKLKNRPSSEGSINK | 2.11
LWVRGDIFRSKLKNRPSSEGSINK | 1.87
LWVNGDIFRSKLKNRPSSEGSINK | 2.66
LWVLGDIFRSKLKNRPSSEGSINK | 2.62
LWVQGDIFISKLKNRPSSEGSINK | 2.4
LWVQGDIFVSKLKNRPSSEGSINK | 2.65
LWVQGDIFSSKLKNRPSSEGSINK | 2.6
LWVQGDIFHSKLKNRPSSEGSINK | 2.55
LWVQGDIFKSKLKNRPSSEGSINK | 3.02
LWVQGDIFGSKLKNRPSSEGSINK | 2.56
LWVQGDIFDSKLKNRPSSEGSINK | 3.68
LWVQGDIFASKLKNRPSSEGSINK | 3.05
LWVQGDIFPSKLKNRPSSEGSINK | 3.18
LWVQGDIFNSKLKNRPSSEGSINK | 3.4
LWVQGDIFTSKLKNRPSSEGSINK | 2.85

Variant | protein stability index
LWVQGDIFLSKLKNRPSSEGSINK | 2.35
LWVQGDIFQSKLKNRPSSEGSINK | 2.91
LWVQGDIFCSKLKNRPSSEGSINK | 2.22
LWVQGDIFYSKLKNRPSSEGSINK | 2.37
LWVQGDIFESKLKNRPSSEGSINK | 3.21
LWVQGDIFFSKLKNRPSSEGSINK | 2.57
LWVQGDIFWSKLKNRPSSEGSINK | 1.88
LWVQGDIFMSKLKNRPSSEGSINK | 2.18
LWVQGDIFREKLKNRPSSEGSINK | 2.44
LWVQGDIFRRKLKNRPSSEGSINK | 3.23
LWVQGDIFRCKLKNRPSSEGSINK | 2.3
LWVQGDIFRAKLKNRPSSEGSINK | 2.29
LWVQGDIFRFKLKNRPSSEGSINK | 2.05
LWVQGDIFRDKLKNRPSSEGSINK | 3.07
LWVQGDIFRNKLKNRPSSEGSINK | 2.48
LWVQGDIFRPKLKNRPSSEGSINK | 2.27
LWVQGDIFRYKLKNRPSSEGSINK | 3.11
LWVQGDIFRHKLKNRPSSEGSINK | 2.48
LWVQGDIFRWKLKNRPSSEGSINK | 1.54
LWVQGDIFRMKLKNRPSSEGSINK | 2.49
LWVQGDIFRLKLKNRPSSEGSINK | 3.46
LWVQGDIFRVKLKNRPSSEGSINK | 2.92
LWVQGDIFRQKLKNRPSSEGSINK | 3.37
LWVQGDIFRIKLKNRPSSEGSINK | 2.31

Variant | protein stability index
LWVQGDIFRKKLKNRPSSEGSINK | 2.35
LWVQGDIFRTKLKNRPSSEGSINK | 2.45
LWVQGDIFRGKLKNRPSSEGSINK | 3.17
LWVQGDIFRSKAKNRPSSEGSINK | 3.21
LWVQGDIFRSKKKNRPSSEGSINK | 3.16
LWVQGDIFRSKQKNRPSSEGSINK | 2.92
LWVQGDIFRSKVKNRPSSEGSINK | 2.36
LWVQGDIFRSKFKNRPSSEGSINK | 2.29
LWVQGDIFRSKMKNRPSSEGSINK | 2.41
LWVQGDIFRSKDKNRPSSEGSINK | 2.83
LWVQGDIFRSKPKNRPSSEGSINK | 3.09
LWVQGDIFRSKGKNRPSSEGSINK | 2.83
LWVQGDIFRSKEKNRPSSEGSINK | 3.51
LWVQGDIFRSKTKNRPSSEGSINK | 3.17
LWVQGDIFRSKYKNRPSSEGSINK | 2.61
LWVQGDIFRSKNKNRPSSEGSINK | 2.82
LWVQGDIFRSKHKNRPSSEGSINK | 2.71
LWVQGDIFRSKWKNRPSSEGSINK | 2.42
LWVQGDIFRSKSKNRPSSEGSINK | 2.89
LWVQGDIFRSKRKNRPSSEGSINK | 2.22
LWVQGDIFRSKIKNRPSSEGSINK | 2.8
LWVQGDIFRSKCKNRPSSEGSINK | 3.03
